B1: Parechovirus D (nucleic acid)
DNA: ACATGGGGCAGGTGTGCTGTGCCAAGAGCAACACTACGGTGGCCGAGCCGATGGTTCGTCACCACGTAGTAGGACTCCGTAGTGCTTGGTTACGGCGGACGTAAGTCAGTTGAGTGATGTCTAAGTGGCAAACCATGAGTACATGGTAACCTTGTGTGGACTCGCGGGACGGAATTTCCTATCCCATTGACTCCTTGTAGCAAGGTGGGTATACCCAACCACAATGGCAGCACCCTGGGTGGGAACCCAGGGGCCTGGATTAGTATCCAGTCACACAGCCTGATAGGGTGGCGGCTCAGCCACTGACCAGCGTCTCTAAATAATTGTGAGCTGTTCATGCACC
modifications: Parechovirus D
B2: Limnipivirus A (nucleic acid)
DNA: TTCTTTGGATATCCATTTAACGTGTACCCTATACGATAATTGGGGTGGATTCTGGATGCCTAGTTCCAGTGATTGGTTAAGAACTCGTTTACTACGTATAGTATGATTAGCAAAGTGCTCGATTGATCACGTAATGATCTATGTGGTTAAAAACCCAGTAGTATGGTATATACTCAGTAGTGTACACTGTGAGTACAACTCTTGGCGTAGAGAGAACAATTCACCCGAATCCGTGGCGTATCCATGGAAATAAGTTTACCTAATTGTATGTTACAAGGCATATGAGACATTTATGAGATATGGTTTATTTTGACTAAACGAGTGTAGAGGTGGTGGAGTCTATCCAACTTCAAGCCATGCAATTGTTGTGTTGATTGATATCATTGACCATTTTTGTGGATTGTGTACACATACAATTTGAAAATTAACCCCCTCAAGAATAAGACATGGGACCATTCGTGGTAGATACCGTGCTCGGATGCTTGAGATTAGATGGGTTAGACTAGTTTTGGAATGAGATTGCCGAGAAAGTCCCGCTAGACATGTTTTACAAGTCGTGGTATTCCGCTAGACTTTTTCGCAGACACATGGAAGGGTCCATGTGTTGTGCAATTGCAGGGTGACAGCCCAACTGCAGAGTTTTCCTTACTAGAATAAAAATCTGTTGTCAATTTT
modifications: Limnipivirus A
B3: Orivirus (nucleic acid, listed as Orivirus sp.)
DNA: GGTCCCAGGCCAATATTCTTCGTAAGGCTTGGTTCCAATTTTCCACCACTCGTGTTTGGGTTCTGGCCTATGGTACCCAGAGGGGCGGTTTGGGGGAATTAACTCCCCCTCCCCTGTGGTCCTATACCACCCCACACCTCTGTGGGCTTTCTTTACTATCTTCTTGTTTTCCGACTTTTAAACACTAGGCAGGCGCGCCTAGTCATACACCGCCCGGCTGGTCTTTCCAGCTCTTGTGGGCGGTGCGCGCTGGTCCATCGTGCCCAGCGACATAGCACCTTGTGGACACCTCCGAACGCCCTCCCCTGTATGGGGTGGTGCCCAGGGGTTTCAGTGTGGTGACACACTCCCTGGGGCCCGAAAGGCTAGTGTGCAACAGGTGAGGTACAGCCAGCTGCCCCCGTGGCTGGAGGGACCAAGCTTGTGAAGCACACCTCACCTTCTTGGGGGTGGGCTAGTAAGTGGTGAAAGCATAGTGTCCGTGTCGCTGGCCAACACTTTGGGTCAAGTCCAGCCACTCAGTGAGTAGATGCCCAGGAGGTACCCCTAGTGGATCTGACTTGGGGCCTGTTACTTAATGCAGGTTAAAAACTATGAAAGCTGAGTAGTGTAGCCCGGCTGGTGGCTTCTCTTCCTTATTCATTCTATTTTATGGTGACAAACGCAACTGAAGCC
B4: Parechovirus F (nucleic acid)
DNA: GGTCGGGGAGATGTGTTCATGATCGGTTAACACCATCATGGATCATCTCTCCCCGACCTCTTTTTGACCCAGCTATGGGTTAAATAGTACTTTTCTTTTCTCTTTTGCTTTCTTTTGTGTTTTGTTTGTTTTGCAACATATAACAAGCATTTTATCAGTATTAGTGTCTGCAACTGTATAACAAGCAAGGTGGAGCAATCATGCGAGTATATCTCAATTGAATTGTGACACACAAGTGTGCACTATGTGGAATAAATGCCATTTTGGCCAAACCTGGTTAGCCAGACCAGTAGTAGGACAATTTGGCACCCTTAGTGGGCGCGACCTAGATGCTAGGGATGAGCAAACCTATTTCCCCTGAGTACAGGGGCTCTCCTTCACCTCTACATTTTGGACCTCTTTTTGAGTATCCTCGATAGAAGGTGAAGTGACGGTGTACCGGATGGTTAATTGATCTCATTGCTGGGTGACAGCCCGCTAGGACCAGGCAGCATCTTTGTATGGACCTGTACATGTAAC
modifications: Parechovirus F
B5: HAV HM175 (nucleic acid)
DNA: CGCCGTTTGCCTAGGCTATAGGCTAAATTTTCCCTTTCCCTTTTCCCTTTCCTATTCCCTTTGTTTTGCTTGTAAATATTGATTTGTAAATATTGATTCCTGCAGGTTCAGGGTTCTTAAATCTGTTTCTCTATAAGAACACTCATTTCACGCTTTCTGTCTTCTTTCTTCCAGGGCTCTCCCCTTGCCCTAGGCTCTGGCCGTTGCGCCCGGCGGGGTCAACTCCATGATTAGCATGGAGCTGTAGGAGTCTAAATTGGGGACACAGATGTTTGGAACGTCACCTTGCAGTGTTAACTTGGCTTTCATGAATCTCTTTGATCTTCCACAAGGGGTAGGCTACGGGTGAAACCTCTTAGGCTAATACTTCTATGAAGAGATGCCTTGGATAGGGTAACAGCGGCGGATATTGGTGAGTTGTTAAGACAAAAACCATTCAACGCCGGAGGACTGACTCTCATCCAGTGGATGCATTGAGTGGATTGACTGTCGGGGCTGTCTTTAGGCTTAATTCCAGACCTCTCTGTGCTTGGGGCAAACATCATTTGGCCTTAAATGGGATTCTGTGAGAGGGGATCCCTCCATTGCCAGCTGGACTGTTCTTTGGGGCCTTATGTGGTGTTTGCCGCTGAGGTACTCAGGGGCATTTAGGTTTTTCCTCATTCTTAAATAATA
modifications: Hepatovirus A
B6: Limnipivirus C (nucleic acid)
DNA: GTTTCTGAGCACTGGTAAGAGCTTAGACAAACGTTTTTAAAATTTATTTTCTCTGCAACTTTTGTTTGTGTTTATTTTTATTTGTTAATTTTGCGCCTAAGCATTTGTTGCGAAGTATTTGATTCATTAGTAATATTACTTATTGTTTATTTAGATGGTATTCAAAGTGGTGGGAGTATCGAACCCAAGCGTCGTATGCTATCTCCTTGAACAATTTTTAATCATTGCGAAGTGATCATTGAAAAGGATAGGTGTTTAAGAACTCAAAGAGTGTTAATAATGTTGGGTGACAGGTGTCCCCATAGAATTTATTAACATGATTTGGACTGGTTATCTAGTAAGAAGAACCATCGAACGCACGAGCGAGCATTGCTTGCGGGGCAGTTACCCTGCGTCGATGTAAGTGTGTACCGGGGGGTGCACATGTTGATTCTTTATGGCCTGATAGGGTGCGTCATTCGCGCCTAGATAATTAGTATAATGCGAATGGAATAAATTTAC
modifications: Limnipivirus C
B7: HAV FH1 (nucleic acid)
DNA: CTTGATACCTCACCGCCGTTTGCCTAGGCTATAGGCTAAATTTCCCTTTCCCTGTCCTTTCCCTATTTCCTTTTGTTTTGTTTGTAAATATTAATTCCTGCAGGTTCAGGGTTCTTTAATCTGTTTCTCTATAAGAACACTCAATTTTCACGCTTTCTGTCTCCTTTCTTCCAGGGCTCTCCCCTTGCCCTAGGCTCTGGCCGTTGCGCCCGGCGGGGTCAACTCCATGATTAGCATGGAGCTGTAGGAGTCTAAATTGGGGACGCAGATGTTTGGGACGTCGCCTTGCAGTGTTAACTTGGCTTTCATGAACCTCTTTGATCTTCCACAAGGGGTAGGCTACGGGTGAAACCTCTTAGGCTAATACTTCTATGAAGAGATGCCTTGGATAGGGTAACAGCGGCGGATATTGGTGAGTTGTTAAGACAAAAACCATTCAACGCCGAAGGACTGGCTCTCATCCAGTGGATGCATTGAGGGAATTGATTGTCAGGGCTGTCTCTAGGTTTAATCTCAGACCTCTCTGTGCTTAGGGCAAACACTATTTGGCCTTAAATGGGATCCTGTGAGAGGGGGTCCCTCCATTGACAGCTGGACTGTTCTTTGGGGCCTTATGTGGTGTTTGCCTCTGAGGTACTCAGGGGCATTTAGGTTTTTCCTCATTCTTAAACAATA
modifications: Hepatovirus A
B8: Halastavi arva (1x mut) (nucleic acid)
DNA: CTTGATTCTAACCTTGCCGTATGGTGCCCTAACGGGTTCATTTAATCATGCGATGAGGGTTGCTATACCGCATCCATTCTAAGGCGATTCAATGCTTCATTTAGGAATTTTGTTGACGATTAAAAGGTACCCCCACAAAAACAAAACCAATCTTACTTGATTTTCGTTTTAACTGACCACTGCGATCCCAAATTTTCGCCTTCTTATCAAAGTATGTTGTGTTCTTTGGGTGTACAACCTGAGAACTTGTCTACAACTACATATTACTCGAGGAAGAAATTCGGTTTAAGCCGTGCCTTCTCACGTTTAGTATATCTATCTGGACACACCTTCTTCATCTTCTAATCCCCATCTAGTCTCCTGATCAGAGACGTCGTTATTAACAAATAACCCCCCTTGTTAATAAGAGACAAAGTACAATCAAGCTAAGTTCTCTTGGAGTTCCTGTAGGAACTTAGCCATTGTGATAGAGTCATAAGTCTATGTGCATAGACAGCTCTAGCTCACCATTTCCTTCCCAACCCATCTTTTCATCAGCTTAACTCTATGAATCCGATGCAAAAACCATTCTAACATCTTATGGTGCTTTCCAAGCCAAATGAGAGCTCACTCTTTTGAGCCGCTATTTAATGGACAATAAACGTTTTATAGTGTACATCATATTGTAAAAACAAA
B9: Kunsagivirus B (nucleic acid)
DNA: GATTTTCTGGTTATCCCTTTTGGACTTGGTAGGGGCCCACGTGCCCACCCACCTCTGTGTGTGTTGATTTCTAATCGATGCCTGGCAGTGGCGGCCACCTCTCCTTACTGGTAAACCTCCGGTGAGTGAAGTTGTCAAGCTACAGGTACCGTGCAGGATGAAATGCGCACATGTGAACAAACTAGGAGTCATACACCGGGTCAAACTCTGGAAACGGAGTCCGGGACTCTGACCTTGGTTGGGTGAGCTCGAGGCATCACATTGATGGACGCGATTCGCTATCCTTCCCTAGTAGGACCTTGTGGTGTACCCCTGGTTGGGAATCCAGGGCTGGTCGGGTGCAGGGTGACAGCCTGTTCTCCACCTCAACCATTGTAGGAGAAATCAACCCCT
modifications: Kunsagivirus B

tested on: HEK293 cells; type: cell-based, human; settings: luminescence from secreted Gluc in supernatant 24 hours after transfection of HEK293 cells; circular RNA encoding Gluc with the named IRES (UTR truncated to 675 nt)

Q: B1 was tested. Which Expression did it give?
A: 3.10E+05

Q: B2 was tested. Which Expression did it give?
A: 8.30E+04

Q: B3 was tested. Which Expression did it give?
A: 6.09E+05

Q: Which Expression does the source give for B4 here?
A: 6.56E+05

Q: B5 was tested. Which Expression did it give?
A: 4.96E+05

Q: How did the Expression turn out when B6 was run?
A: 1.35E+05

Q: How did the Expression turn out when B7 was run?
A: 1.24E+05

Q: Which Expression does the source give for B8 here?
A: 9.46E+04

Q: B9 was tested. Which Expression did it give?
A: 8.01E+04
